For this series, the target named is CAF-1 (Cac1-Cac2-Cac3) (Saccharomyces cerevisiae? (yeast), UniProt Q12495;Q04199;P13712 1-606;1-468;1-422). Description: EMSA; EMSA: 25 mM Tris pH 7.5, 150 mM NaCl, 1 mM EDTA, 0.02% Tween-20, 1 mM TCEP, 50 nM DNA, 6% PAGE; SEC: 50 mM HEPES pH 7.5, 200 mM NaCl, 0.01% IGEPAL, 1 mM TCEP, 10 mM MgCl2, PCNA loading at 30 C with 3 mM ATP, CAF-1 at room temperature. To be noted: protein: recombinant, chain copies: 2;2;2, blunt.

B1: 33 bp DNA (dsDNA)
DNA 1: GCTGTCTACGAGCAATTGAGCGGCCTCGGCACC
DNA 2: GGTGCCGAGGCCGCTCAATTGCTCGTAGACAGC
Regarding B1, the Kd (commonly the free concentration of one partner at which half of the binding sites on the other are occupied at equilibrium, for simple one-to-one binding) (label: 5' Alexa Fluor 647 on forward strand) is 330 nM.

B2: 53 bp DNA (dsDNA)
DNA 1: CGGTGCTAGAGCTGTCTACGAGCAATTGAGCGGCCTCGGCACCGGGATTCTGA
DNA 2: TCAGAATCCCGGTGCCGAGGCCGCTCAATTGCTCGTAGACAGCTCTAGCACCG
Regarding B2, the Kd worked out at 180 nM.

B3: 43 bp DNA (dsDNA)
DNA 1: CTAGAGCTGTCTACGAGCAATTGAGCGGCCTCGGCACCGGGAT
DNA 2: ATCCCGGTGCCGAGGCCGCTCAATTGCTCGTAGACAGCTCTAG
With B3, the Kd came out at 230 nM.

The values above are taken from article PMC10164577, “CAF-1 deposits newly synthesized histones during DNA replication using distinct mechanisms on the leading and lagging strands”.
